Measurements as given in publication PMC7803729 (Nature Communications, 2021).

Molecular target: SARS-CoV-2 S protein RBD (Arg319-Asn536) with a polyhistidine tag at the C-terminus, manufactured by Celltrion (SARS-CoV-2, Wuhan-Hu-1 (YP_009724390.1), UniProt P0DTC2)
Test: SPR
Conditions: both partners purified

B1: CT-P59 monoclonal antibody, full-length fully human IgG (antibody, V domains shown)
VH: QITLKESGPTLVKPTQTLTLTCSFSGFSLSTSGVGVGWIRQPPGKALEWLALIDWDDNKYHTTSLKTRLTISKDTSKNQVVLTMTNMDPVDTATYYCARIPGFLRYRNRYYYYGMDVWGQGTTVTVSS
VL: ELVLTQPPSVSAAPGQKVTISCSGSSSNIGNNYVSWYQQLPGTAPKLLIYDNNKRPSGIPDRFSGSKSGTSATLGITGLQTGDEADYYCGTWDSSLSAGVFGGGTELTVL
**Q.** B1 was tested. Which Kd did it give?
**A.** The Kd was 0.027 nM.
